From patent US20250283129A1, “PROCESS” (Sun Pharmaceutical Industries Australia Pty Limited, priority 2021, published 2025)

What was measured:
[1] = test system: codeine; test: Whole cell biotransformation of codeine to morphine by E. coli cells expressing CODM variants; assay type: cell-based
[2] = test system: thebaine; test: Whole cell biotransformation of thebaine to oripavine by E. coli cells expressing CODM variants; assay type: cell-based

B1: 15K+M360I: codeine 3-O-demethylase with amino acid substitutions I5K and M360I (protein, listed as Papaver somniferum)
chain: METPKLIKLGNGLSIPSVQELAKLTLAEIPSRYTCTGESPLNNIGASVTDDETVPVIDLQNLLSPEPVVGKLELDKLHSACKEWGFFQLVNHGVDALLMDNIKSEIKGFFNLPMNEKTKYGQQDGDFEGFGQPYIESEDQRLDWTEVFSMLSLPLHLRKPHLFPELPLPFRETLESYLSKMKKLSTVVFEMLEKSLQLVEIKGMTDLFEDGLQTMRMNYYPPCPRPELVLGLTSHSDFSGLTILLQLNEVEGLQIRKEERWISIKPLPDAFIVNVGDILEIMTNGIYRSVEHRAVVNSTKERLSIATFHDSKLESEIGPISSLVTPETPALFKRGRYEDILKENLSRKLDGKSFLDYMRI
increase in morphine yield relative to the WT CODM strain ([1]; Example 4, morphine measured after 15 minutes): 2.3 × | speed of biotransformation with codeine as substrate (in words) ([1]; time course over two hours): faster than the WT CODM control | yield of morphine ([1]; time course, after one hour): ~94% | increase in oripavine yield relative to the WT CODM strain ([2]; Example 4, oripavine measured after 2 hours): 2.76 × | speed of biotransformation with thebaine as substrate (in words) ([2]; time course over twenty-four hours): performed the fastest biotransformation | yield of thebaine to oripavine ([2]; time course, after ~five hours): ~95%
